# Assay results as given in patent US20210115144A1 (Dana-Farber, published 2021).
# T1: human HHLA2 expressed on transfected cells (300.19 mouse pre-B cells; CHO cells) (human, UniProt Q9UM44 23-414)
# T1 construct: also called B7-H7; B7H7
# T1 sequence: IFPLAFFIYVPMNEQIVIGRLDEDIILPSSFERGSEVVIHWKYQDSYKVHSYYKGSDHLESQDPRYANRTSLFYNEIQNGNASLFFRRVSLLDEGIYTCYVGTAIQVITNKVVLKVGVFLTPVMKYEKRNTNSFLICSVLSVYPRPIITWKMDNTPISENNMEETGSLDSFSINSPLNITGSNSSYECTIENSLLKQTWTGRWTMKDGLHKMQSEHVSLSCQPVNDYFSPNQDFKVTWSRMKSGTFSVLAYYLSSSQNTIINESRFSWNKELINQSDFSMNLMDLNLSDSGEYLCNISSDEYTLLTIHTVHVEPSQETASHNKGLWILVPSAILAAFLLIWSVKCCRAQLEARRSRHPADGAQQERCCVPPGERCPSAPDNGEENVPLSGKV
# B1: anti-HHLA2 monoclonal antibody 6F10 (antibody, IgG1, V domains shown)
# VH: QVHLQQSAAELARPGASVKMSCKASGYTFTTYTMHWVKQRPGQGLEWIGHINPSSGYTDYNQKFKDKTTLTADKSSSTAYMQLNSLTSEDSAVYYCARHPWDSDYWGQGTTLTVSS
# VL: DIQMTQSPASLSASVGETVTITCRASENIDSYLAWYQQKQGRSPQLLVYAATNLADGVPSRFSGSGSGTQFSLQINRLQSEDVARYYCQHYYITPFTFGSGTKLEIA
# notes: also called 499.5.6F10.A4.10; MHC2557
# B2: human HHLA2-mIgG2a fusion protein (Fc fusion, not shown: a dimerising Fc or GST)
# chain: IFPLAFFIYVPMNEQIVIGRLDEDIILPSSFERGSEVVIHWKYQDSYKVHSYYKGSDHLESQDPRYANRTSLFYNEIQNGNASLFFRRVSLLDEGIYTCYVGTAIQVITNKVVLKVGVFLTPVMKYEKRNTNSFLICSVLSVYPRPIITWKMDNTPISENNMEETGSLDSFSINSPLNITGSNSSYECTIENSLLKQTWTGRWTMKDGLHKMQSEHVSLSCQPVNDYFSPNQDFKVTWSRMKSGTFSVLAYYLSSSQNTIINESRFSWNKELINQSDFSMNLMDLNLSDSGEYLCNISSDEYTLLTIHTVHVEPSQETASHN
# notes: also called hHHLA2-mIgG2a; HHLA2-Fc
# B3: human TMIGD2-human IgG1 fusion protein (R&D Systems catalog #8316-TR-050) (Fc fusion, UniProt Q96BF3 23-150, looked up)
# chain: LSVQQGPNLLQVRQGSQATLVCQVDQATAWERLRVKWTKDGAILCQPYITNGSLSLGVCGPQGRLSWQAPSHLTLQLDPVSLNHSGAYVCWAAVEIPELEEAEGNITRLFVDPDDPTQNRNRIASFPG
# notes: Bought reagent; also called TMIGD2-hIgG; TMIGD2-human Fc fusion protein; not shown: human IgG1 Fc portion of the bought fusion protein
# B4: human TMIGD2 expressed on transfected cells (293T, 300.19, HEK293 microarray, Jurkat) (receptor)
# chain: LSVQQGPNLLQVRQGSQATLVCQVDQATAWERLRVKWTKDGAILCQPYITNGSLSLGVCGPQGRLSWQAPSHLTLQLDPVSLNHSGAYVCWAAVEIPELEEAEGNITRLFVDPDDPTQNRNRIASFPGFLFVLLGVGSMGVAAIVWGAWFWGRRSCQQRDSGNSPGNAFYSNVLYRPRGAPKKSEDCSGEGKDQRGQSIYSTSFPQPAPRQPHLASRPCPSPRPCPSPRPGHPVSMVRVSPRPSPTQQPRPKGFPKVGEE
# notes: The cDNA used in 293T and 300.19 cells is not tied to an entry in words; also called CD28H; IGPR1
# What was measured:
# [1] = biological target: T1, human HHLA2 expressed on transfected …; test: flow cytometry, mAb on HHLA2-transfected 300.19 mouse pre-B cells
# [2] = biological target: T1, human HHLA2 expressed on transfected …; test: flow cytometry, mAb titrated on human HHLA2-transfected 300.19 pre-B cells
# Method: (§1) Binding of different HHLA2 mAbs to human and cynomolgus monkey HHLA2 was also tested and EC50 binding analysis was conducted (FIGS. 13A and 13B). […] HHLA2 mAb binding to transfected 300.19 cells was detected with PE-labeled goat anti-mouse IgG (H+L). EC50 analysis was conducted using Graph Pad Prism.
# [3] = biological target: T2, cynomolgus monkey HHLA2 expressed on transfected 300.19 pre-B cells (cynomolgus monkey); test: flow cytometry, mAb titrated on cynomolgus monkey HHLA2-transfected 300.19 pre-B cells
# T2 construct: whole, on cells
# Method: FIGS. 13A and 13B show HHLA2 mAb binding to human and cynomolgus monkey HHLA2. […] HHLA2 mAb binding to transfected 300.19 cells was detected with a PE-labeled goat anti-mouse IgG (H+L) by flow cytometry.
# as §1
# [4] = biological target: T1, human HHLA2 expressed on transfected …; test: flow cytometry, mAb titrated on HHLA2-transfected 300.19 pre-B cells, PE goat anti-mouse IgG
# Method: (§2) HHLA2 mAb cell binding and receptor blockade experiments were then performed. […] HHLA2 mAb binding to transfected 300.19 cells was detected with PE-labeled goat anti-mouse IgG (H+L). For HHLA2 mAb blocking experiments different concentration of HHLA2 mAbs were pre-incubated with 4 ug/ml of HHLA2-mIgG2a at a 1:1 ratio for 30 minutes and added to either TMIGD2 or KIR3DL3 transfected 293T cells and incubated for 30 minutes at 4° C. HHLA2-mIgG2a binding to TMIGD2 or KIR3DL3 transfected 293T cells was detected with a PE labeled Fab2 goat anti-mIgG2a antibody. EC50 and IC50 analyses were conducted using Graph Pad Prism. It was shown that HHLA2 mAb clone 2C4 has desired properties of complete KIR3DL3 blockade and partial TMIGD2 blockade (Table 6).
# [5] = biological target: T1, human HHLA2 expressed on transfected …; test: as above; remark: listed apart in the source
# Method: as §1
# [6] = biological target: B2; test: flow cytometry, mAb pre-incubated with 4 ug/ml HHLA2-mIgG2a; blockade of its binding to TMIGD2-transfected 293T cells
# Method: as §2
# [7] = biological target: B2; test: flow cytometry, mAb pre-incubated with 4 ug/ml HHLA2-mIgG2a; blockade of its binding to KIR3DL3-transfected 293T cells
# Method: as §2
# [8] = biological target: B2; test: flow cytometry, mAb pre-incubated with 4 ug/ml HHLA2-mIgG2a; blockade of its binding to TMIGD2-transfected 300.19 pre-B cells
# Method: (§3) HHLA2 mAb binding to transfected 300.19 cells was detected with PE-labeled goat anti-mouse IgG (H+L). […] EC50 and IC50 analyses were conducted using Graph Pad Prism. It was shown that HHLA2 mAb clone 2C4 has desired properties of complete KIR3DL3 blockade and partial TMIGD2 blockade (Table 7).
# [9] = biological target: B2; test: flow cytometry, mAb pre-incubated with 4 ug/ml HHLA2-mIgG2a; blockade of its binding to KIR3DL3-transfected 300.19 pre-B cells
# Method: as §3
# KIR2DL1 = biological target: T3, KIR2DL1 (human, UniProt P43626 22-348); test: cell microarray, HHLA2-mIgG2a on fixed transfected HEK293 cells, AF647 anti-mouse IgG detection
# T3 construct: whole, on cells
# T3 sequence (P43626 22-348): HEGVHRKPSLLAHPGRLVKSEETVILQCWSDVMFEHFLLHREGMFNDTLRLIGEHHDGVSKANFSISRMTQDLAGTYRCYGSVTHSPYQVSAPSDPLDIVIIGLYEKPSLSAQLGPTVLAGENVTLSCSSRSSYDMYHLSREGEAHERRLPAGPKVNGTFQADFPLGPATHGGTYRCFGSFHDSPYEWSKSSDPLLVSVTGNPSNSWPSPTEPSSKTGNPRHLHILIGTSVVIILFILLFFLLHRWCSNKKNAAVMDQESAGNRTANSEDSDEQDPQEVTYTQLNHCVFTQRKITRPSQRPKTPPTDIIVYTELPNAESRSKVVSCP
# Method: (§4) Human HHLA2-mIgG2a fusion protein was added to slides of fixed, transfected HEK293 cell slides at a 20 ug/ml concentration, and the protein was detected with an AF647 labeled anti-mouse IgG detection antibody. Two replicate slides were screened for each of the 13 slide sets. Fluorescent images were analyzed and quantitated (for transfection efficiency) using ImageQuant software (GE). A protein ‘hit’ was defined as duplicate spots showing a raised signal compared to background levels. This was achieved by visual inspection using the images gridded on the ImageQuant software.
# (§5) Addition of the AF647 labeled anti-mouse IgG detection antibody alone in the absence of HHLA2-mIgG2a produced no signal. The selectivity of HHLA2 binding to KIR3DL3 was evaluated using a panel of 14 KIR receptors arrayed on slides.
# KIR2DL2 = biological target: T4, KIR2DL2 (human, UniProt P43627 22-348); test: as above
# T4 construct: whole, on cells
# T4 sequence (P43627 22-348): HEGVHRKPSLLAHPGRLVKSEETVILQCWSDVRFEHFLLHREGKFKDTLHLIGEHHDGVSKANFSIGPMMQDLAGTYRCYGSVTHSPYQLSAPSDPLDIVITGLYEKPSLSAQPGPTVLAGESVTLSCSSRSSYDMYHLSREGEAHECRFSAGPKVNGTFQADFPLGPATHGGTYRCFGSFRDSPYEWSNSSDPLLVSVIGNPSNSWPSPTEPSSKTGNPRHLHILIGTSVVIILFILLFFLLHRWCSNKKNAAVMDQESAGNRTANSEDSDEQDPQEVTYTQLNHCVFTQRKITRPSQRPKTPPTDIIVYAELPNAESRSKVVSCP
# Method: as §4, §5
# KIR2DL4 = biological target: T5, KIR2DL4 (human, UniProt Q99706 22-377); test: as above
# T5 construct: whole, on cells
# T5 sequence (Q99706 22-377): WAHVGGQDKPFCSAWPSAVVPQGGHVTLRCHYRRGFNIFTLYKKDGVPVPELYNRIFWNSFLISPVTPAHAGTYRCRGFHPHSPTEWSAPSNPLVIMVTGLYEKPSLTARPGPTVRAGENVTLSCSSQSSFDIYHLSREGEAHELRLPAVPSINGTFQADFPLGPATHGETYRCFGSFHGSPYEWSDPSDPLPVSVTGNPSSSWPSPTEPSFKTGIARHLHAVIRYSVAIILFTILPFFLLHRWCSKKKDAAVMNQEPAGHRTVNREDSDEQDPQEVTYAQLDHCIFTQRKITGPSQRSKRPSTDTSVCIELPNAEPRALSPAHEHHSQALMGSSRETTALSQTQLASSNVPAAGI
# Method: as §4, §5
# KIR2DL5A = biological target: T6, KIR2DL5A (human, UniProt Q8N109 22-375); test: as above
# T6 construct: whole, on cells
# T6 sequence (Q8N109 22-375): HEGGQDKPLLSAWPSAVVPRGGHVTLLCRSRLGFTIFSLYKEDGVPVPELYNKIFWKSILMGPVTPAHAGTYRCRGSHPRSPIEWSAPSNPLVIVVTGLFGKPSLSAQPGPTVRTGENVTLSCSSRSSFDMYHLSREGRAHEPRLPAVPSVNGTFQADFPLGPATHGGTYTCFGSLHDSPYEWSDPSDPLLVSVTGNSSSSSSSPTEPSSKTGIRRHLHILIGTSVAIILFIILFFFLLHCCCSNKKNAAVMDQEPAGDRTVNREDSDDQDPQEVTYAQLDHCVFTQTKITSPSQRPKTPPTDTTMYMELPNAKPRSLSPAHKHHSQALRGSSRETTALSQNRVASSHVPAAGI
# Method: as §4, §5
# KIR2DL5B = biological target: T7, KIR2DL5B (human, UniProt Q8NHK3 22-375); test: as above
# T7 construct: whole, on cells
# T7 sequence (Q8NHK3 22-375): as the sequence (Q8N109 22-375) above, with N152D, G174S counted along it
# Method: as §4, §5
# KIR3DL1 = biological target: T8, KIR3DL1 (human, UniProt P43629 22-444); test: as above
# T8 construct: whole, on cells
# T8 sequence (P43629 22-444): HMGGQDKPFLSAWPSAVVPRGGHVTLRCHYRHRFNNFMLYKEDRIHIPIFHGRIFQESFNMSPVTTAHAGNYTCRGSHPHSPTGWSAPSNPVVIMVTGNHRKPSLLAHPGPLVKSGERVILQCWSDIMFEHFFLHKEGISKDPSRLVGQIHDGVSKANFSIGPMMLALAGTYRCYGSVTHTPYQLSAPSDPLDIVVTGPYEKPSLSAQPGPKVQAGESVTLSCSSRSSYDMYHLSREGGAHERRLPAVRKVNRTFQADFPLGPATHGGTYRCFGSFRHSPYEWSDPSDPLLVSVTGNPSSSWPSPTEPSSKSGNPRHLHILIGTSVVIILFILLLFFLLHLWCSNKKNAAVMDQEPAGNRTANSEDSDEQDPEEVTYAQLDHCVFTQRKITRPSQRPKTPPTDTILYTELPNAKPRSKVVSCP
# Method: as §4, §5
# KIR3DS1 = biological target: T9, KIR3DS1 (human, UniProt Q14943 22-382); test: as above
# T9 construct: whole, on cells
# T9 sequence (Q14943 22-382): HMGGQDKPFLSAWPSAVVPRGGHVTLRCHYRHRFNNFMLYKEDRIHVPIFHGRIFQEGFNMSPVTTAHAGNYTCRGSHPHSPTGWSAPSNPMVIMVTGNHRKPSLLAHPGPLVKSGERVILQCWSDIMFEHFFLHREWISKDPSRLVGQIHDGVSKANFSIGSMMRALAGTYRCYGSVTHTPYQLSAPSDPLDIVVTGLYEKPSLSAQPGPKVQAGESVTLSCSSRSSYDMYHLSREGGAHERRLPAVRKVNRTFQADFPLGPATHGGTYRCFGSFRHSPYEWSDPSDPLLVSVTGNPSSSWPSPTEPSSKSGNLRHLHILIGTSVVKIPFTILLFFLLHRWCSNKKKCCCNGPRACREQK
# Method: as §4, §5
# KIR3DL2 = biological target: T10, KIR3DL2 (human, UniProt P43630 22-455); test: as above
# T10 construct: whole, on cells
# T10 sequence (P43630 22-455): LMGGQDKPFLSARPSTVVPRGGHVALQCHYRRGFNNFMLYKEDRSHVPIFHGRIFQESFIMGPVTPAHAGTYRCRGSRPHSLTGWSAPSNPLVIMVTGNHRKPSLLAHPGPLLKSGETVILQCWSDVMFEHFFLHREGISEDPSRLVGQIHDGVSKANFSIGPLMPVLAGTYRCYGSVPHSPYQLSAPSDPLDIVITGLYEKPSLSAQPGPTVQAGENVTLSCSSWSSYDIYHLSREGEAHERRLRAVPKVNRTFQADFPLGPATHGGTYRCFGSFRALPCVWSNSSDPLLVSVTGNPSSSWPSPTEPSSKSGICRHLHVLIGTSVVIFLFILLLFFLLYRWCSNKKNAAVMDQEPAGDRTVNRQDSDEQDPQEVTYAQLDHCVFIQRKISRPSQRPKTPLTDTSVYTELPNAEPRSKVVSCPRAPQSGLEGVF
# Method: as §4, §5
# [10] = biological target: T11, human KIR3DL3 expressed on transfected cells (HEK293 microarray, 293T, 300.19) (human, UniProt Q8N743 26-410); test: cell microarray, HHLA2-mIgG2a on fixed KIR-transfected HEK293 cells, AF647 anti-mouse IgG detection
# T11 construct: also called CD158Z; KIR3DL7
# T11 sequence (Q8N743 26-410 H321N limits assumed): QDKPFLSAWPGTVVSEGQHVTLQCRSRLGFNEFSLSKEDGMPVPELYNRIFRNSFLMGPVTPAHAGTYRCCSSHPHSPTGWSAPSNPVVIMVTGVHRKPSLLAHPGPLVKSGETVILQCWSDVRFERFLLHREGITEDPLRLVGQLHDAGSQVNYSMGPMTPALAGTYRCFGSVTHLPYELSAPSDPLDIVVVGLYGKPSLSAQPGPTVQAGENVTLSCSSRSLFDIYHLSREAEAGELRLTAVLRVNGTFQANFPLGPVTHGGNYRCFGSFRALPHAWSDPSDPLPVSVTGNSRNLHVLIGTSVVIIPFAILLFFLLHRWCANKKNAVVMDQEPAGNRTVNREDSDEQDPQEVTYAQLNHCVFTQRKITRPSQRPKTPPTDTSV
# Method: as §4, §5
# [11] = biological target: T1, human HHLA2 expressed on transfected …; test: flow cytometry, staining and sorting of HHLA2-transfected 300.19 cells
# Method: In particular, binding affinity for each anti-HHLA2 antibody was assayed. The HHLA2 cDNA and a vector encoding puromycin resistance were co-transfected by electroporation (300 volts, 1600 microfarads) into mouse 300.19 cells and selected with media containing 5 μg/ml puromycin. Cells expressing HHLA2 were identified by staining with TMIGD2-human Fc fusion protein and goat anti-human Fc antibody conjugated to phycoerythrin and single cell sorted by flow cytometry. Expression of HHLA2 in individual clones was confirmed by flow cytometry as described above. HHLA2-transfected 300.19 cells were titrated with anti-HHLA2 mAbs (FIG. 1A).
# [12] = biological target: B2; test: cell microarray, soluble HHLA2-mIg fusion protein on transfected HEK293 cells
binder,measurement,setting,value
B1,EC50,[1],0.25 µg/mL
same,EC50,[2],0.22 µg/mL
same,EC50,[3],0.4 µg/mL
same,EC50,[4],0.25 µg/mL
same,EC50,[5],0.22 µg/mL
same,IC50,[6],0.55 µg/mL
same,IC50,[7],0.9 µg/mL
same,IC50,[8],0.92 µg/mL
same,IC50,[9],0.74 µg/mL
B2,binding result,KIR2DL1,no binding (tested: 20 ug/ml)
same,binding result,KIR2DL2,no binding (tested: 20 ug/ml)
same,binding result,KIR2DL4,no binding (tested: 20 ug/ml)
same,binding result,KIR2DL5A,no binding (tested: 20 ug/ml)
same,binding result,KIR2DL5B,no binding (tested: 20 ug/ml)
same,binding result,KIR3DL1,no binding (tested: 20 ug/ml)
same,binding result,KIR3DS1,no binding (tested: 20 ug/ml)
same,binding result,KIR3DL2,no binding (tested: 20 ug/ml)
same,binding result,[10],binds
B3,binding result,[11],binds
B4,binding result,[12],binds
